# Source: the supplement of paper PMC12042874
# ± gives the uncertainty stated by the source.
# Test: amyloid nucleation score (Sup35N fusion, yeast selection) (log enrichment); library NNK2; higher = more nucleation; inactive = no reads after selection
# Procedure, shortened: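 Peptides of 20 random codons fused to Sup35N were expressed in psi-negative yeast, induced 24 hours with 100 μM copper sulfate, then grown 7 days at 30°C on medium lacking adenine and uracil. Input and output plasmid inserts were Illumina-sequenced. Nucleation score is the DiMSum log enrichment of output over input reads, centred on the mode score of non-aggregating sequences, excluding sequences with under 100 input reads. Random libraries had three technical output replicates.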
row,Substance,amyloid nucleation score
1,IWLVQGTAFPGMLSGQGWLL,0.147 ± 0.76
2,MKGAKGDNFCIMV,inactive
3,TCARSVYDNLSLINLTRG,1.73 ± 0.1
4,GGMYKSMRGWLTGCFVAWVV,0.369 ± 0.34
5,LGSVYRQGSEGGWATYLNTY,inactive
6,RLLAIRIVILYSINCVLSLW,0.129 ± 0.42
7,CITFS,-0.817 ± 0.46
8,HFTTLGILLRCRGLSVLPKV,-0.329 ± 0.39
9,NLHYHSSTSSTRNFKYGCAF,inactive
10,YGLWIKS,-0.127 ± 1.1
11,NCQYFMRGFSVISSTFGMLS,-0.395 ± 0.76
12,VFEFVVDNHLNIRLTRGGFM,4.93 ± 0.084
13,GFRTFRRGREWSLE,0.714 ± 0.34
14,CSSFTQGCKCSF,-0.139 ± 0.37
15,CWKVREENRVVRCTHSYFLE,-1.03 ± 0.55
16,YVMNRCNR,-0.019 ± 0.54
17,FIKRSAGNREANYNVTKENA,0.816 ± 0.74
18,GLNQSSLCNGEMGYCRIIWR,-1.03 ± 1.1
19,FNTNRNEMCSML,-0.476 ± 1.1
20,EMCCTENCLEGSKVLAQFYC,-1.02 ± 0.61
21,YFGTVHAILGFICLCLIIFQ,3.66 ± 0.085
22,TYRIQRIFLPLYRWLVLLLS,-0.285 ± 0.76
23,DTNVCHIYFGFELLSRFFCN,0.252 ± 0.36
24,STYNCFTGADRSLL,0.94 ± 0.67
25,ITHMLLTGIPTQLSRV,-0.621 ± 0.74
26,PTLTSIELSSTPRIRFWDSA,0.122 ± 0.26

row,Substance,amyloid nucleation score
1,DKPVSTH,-0.861 ± 1
2,NVIVFRMGCRILNWGAQYGR,6.44 ± 0.082
3,YSRGGKMVAARGCGSAEPDA,-0.64 ± 0.76
4,AKVVHTVWACIAS,-0.943 ± 0.78
5,FAFTPIC,-1.59 ± 1
6,VNMFSFHYFHSVMRFLFYRW,-0.751 ± 0.41
7,WVIDACLNRPLSERSYYRNK,0.767 ± 0.58
8,PITVYWCCDNS,3.84 ± 0.087
9,SVFFGFWDTHAAAYMHGVFM,inactive
10,NRYVEVCPFLMGTVVGLWLR,0.851 ± 0.8
11,IFGSWSSIMCLTKFKCSLGG,2.8 ± 0.081
12,GYVFYNFFYSAQSRLSSLSN,0.52 ± 0.15
13,NIARNFRYRM,-1.86 ± 1.1
14,LLLFVILCNSNWLCWPR,inactive
15,MNSFQTRGSVPRRNPKIRAS,0.998 ± 0.74
16,VNLSDDCELVYRSCEVLLNY,-1.34 ± 1.1
17,CVRDTLIETFHSVFNPHRRV,0.983 ± 0.29
18,FSFKPRTRSAGG,-0.11 ± 0.5
19,LIMRIVWGGLQDQGSVRSSR,0.855 ± 0.35
20,NGSRSSMSGARERYCYIRVS,inactive
21,CSCMDRFL,1.41 ± 0.15
22,ESLEADN,inactive
23,STEQLLQVHNTHGRPWSRLS,1.32 ± 0.32
24,NMKGTPVYLSFYDCSRPVGW,4.04 ± 0.11
25,FVSFSVGWTLCADMNLRMCF,1.24 ± 0.22
26,NSQGYFMFIKVDHS,-1.39 ± 1.1

row,Substance,amyloid nucleation score
1,WYDSIMT,-0.084 ± 0.35
2,WVGHFIDISDATGRPWHMKA,-0.107 ± 0.53
3,DKHYINASVSHEPSKNR,-0.724 ± 0.46
4,YGSKTRRVWGLRGYRDEGYR,-0.413 ± 0.74
5,KICYWLRRASVYMLVVLGRP,-0.343 ± 0.49
6,SEFSNFKSLQPVYH,-0.047 ± 1.1
7,YNVGALASVSRFRDGFGLS,1.57 ± 0.1
8,ALECGRTMEINLTGR,0.942 ± 0.37
9,LITFLCFYHLKHYGLHTVGW,-1.03 ± 0.36
10,RLMSCMFFNADITAPYWSRY,6.235 ± 0.036
11,SDSNSCGEFARISYMGKWCE,0.705 ± 0.8
12,ADPVNRKFLHSWDF,0.112 ± 0.29
13,LGTVRYLS,0.399 ± 0.41
14,YLMRVRYSLCGLVVSVVAQD,0.856 ± 0.34
15,YVTELIDCPGWTRRM,-0.006 ± 0.38
16,NVSVNAEVN,-0.955 ± 0.54
17,FLDQWDMCP,0.619 ± 0.81
18,TSCFLLIQGIFGGLGITGMP,2.97 ± 0.099
19,LNPRNQCERRCFSVSGLKWY,-0.899 ± 0.64
20,LAGSVTIPLPTCYSIMTSRP,0.233 ± 0.77
21,DLYVLSWLYLGGEPNCVRF,0.446 ± 0.26
22,SISGMRWSSNHQVRSVLGAT,1.17 ± 0.33
23,INMCNP,2.89 ± 0.072
24,CRFRGLRYNRWDQNDVFAGV,0.349 ± 0.44
25,RNKCYLLCLR,-0.384 ± 0.26
26,VAVCMWTTNVCVI,7.804 ± 0.042

row,Substance,amyloid nucleation score
1,NFMNSP,-0.33 ± 1.1
2,FISGYLSETVMVLVDRRLRC,-0.047 ± 1.1
3,SLEGYKLDAQRRFKMVCEMV,-0.267 ± 0.33
4,LYRMYPWVLVGCELFRMVCR,0.108 ± 0.38
5,NSNSCAHLTKTRYKSTVRYT,2.1 ± 0.23
6,MYLGH,-0.864 ± 1.1
7,RELRQPNK,inactive
8,FSCMLNSNFH,inactive
9,NQFEGLKMRSTKLGAGGS,-0.293 ± 0.64
10,LFVLK,-0.843 ± 0.21
11,GRIVRSVLSSIVCILMSYWM,0.821 ± 0.31
12,ECRGCAWA,3.95 ± 0.046
13,GQNLDRSVKGWCTASHTGSF,0.554 ± 0.54
14,KFFFSCTTKFL,3.06 ± 0.1
15,WLRVTRLEIWQGKFSTNELT,-0.755 ± 1.1
16,VLGNSLELVGNRLDSI,4.11 ± 0.066
17,PYYCMSYLAPWCPDELRAS,inactive
18,QKHAYAWLTPF,1.54 ± 0.21
19,RFNFHTSD,-0.959 ± 1.1
20,ALCQYISSSYMWYSVMCELI,inactive
21,LGGRYDVVMLIYLQSALFMG,0.285 ± 1
22,CAMVKFY,-1.3 ± 0.62
23,CYSLYLRS,-0.018 ± 1.1
24,SLSLSSVERNGAANSAREFG,0.647 ± 0.31
25,ISDATLGFGLIHVGMDVWGC,5.76 ± 0.061
26,PYVHVYLWQSLKALVYLTCY,inactive

row,Substance,amyloid nucleation score
1,WKVSLGWNSHMCAGMETLWM,4.18 ± 0.048
2,CLLGMYIVTDTARMTVCVGL,0.444 ± 0.49
3,FYSFRLFMV,1.88 ± 0.2
4,VKWISMCSILSYRRG,-1.08 ± 0.78
5,NLGCPYCISVGC,0.649 ± 0.42
6,CVSGNMYRLGVINW,0.156 ± 0.29
7,YSARRSGNFPVVRLMMNDLT,-0.153 ± 0.65
8,SSGGMVKHYPKIQLSSVWVF,0.238 ± 0.64
9,RGCSESWLSW,0.079 ± 0.34
10,FVNYSRGRFQVGLVMFRVRP,0.427 ± 0.74
11,ILYVCDTRELSGWGGRCYAW,1.73 ± 0.56
12,CLYARHFVNCNGYATGTLMD,-0.163 ± 0.61
13,LIGVMGRCPGVLHLRSFVRD,0.163 ± 0.37
14,RDNYEGLY,-1.05 ± 0.74
15,WLSSGAVRVKGCGFYNSRYN,inactive
16,VPISHLNCYFFW,8.686 ± 0.084
17,FVLLFVYYFILFRLCRIQKV,inactive
18,NDGIFDSTRVVETMCLRSSP,-0.129 ± 1.1
19,DGVCYSRVNYIPISMHVVYR,4.87 ± 0.08
20,RKLLYCCEVATWCRGETSER,4.33 ± 0.089
21,CTFPALSLPGPVSTQQSSGQ,3.47 ± 0.06
22,TWLSLSLYPFSKSYSISAGF,-0.321 ± 1
23,LLSSSTIIHLRMCMIHGSFW,0.791 ± 0.67
